{"source": "patent US20220168396A1", "about": "“MULTI-RECEPTOR AGONIST AND MEDICAL USE THEREOF” (published 2022)", "key": {"[1]": {"target": "human glucagon-like peptide-1 receptor (human, UniProt P43220)", "experiment": "cell-based or functional assay"}, "[2]": {"target": "T1, human glucose-dependent insulinotropic peptide receptor (human, UniProt P48546)", "T1 sequence": "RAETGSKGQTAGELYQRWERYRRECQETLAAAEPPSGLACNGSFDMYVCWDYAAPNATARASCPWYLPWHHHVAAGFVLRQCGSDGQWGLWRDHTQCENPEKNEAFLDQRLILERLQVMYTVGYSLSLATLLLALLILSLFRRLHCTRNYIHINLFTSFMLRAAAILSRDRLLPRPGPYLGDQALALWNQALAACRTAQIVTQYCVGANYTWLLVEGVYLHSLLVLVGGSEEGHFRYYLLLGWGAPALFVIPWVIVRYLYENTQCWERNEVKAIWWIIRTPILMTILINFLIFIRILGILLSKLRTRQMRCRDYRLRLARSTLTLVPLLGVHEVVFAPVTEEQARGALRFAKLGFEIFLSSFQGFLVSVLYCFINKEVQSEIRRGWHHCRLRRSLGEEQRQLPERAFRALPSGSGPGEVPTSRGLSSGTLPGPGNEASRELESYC", "experiment": "cell-based or functional assay"}}, "note": "Square brackets hold non-standard residues; d marks the D form. Ends that are not written are not given here. Aib = CC(C)(N)C(=O)O"}
{"binder": "Y[Aib]EGTFTSDYSIYLEKEA[Aib]KEFVNWLLAGGPSSGAPPPSK-NH2 (N-terminus assumed; SMILES CC[C@H](C)[C@H](NC(=O)[C@H](CO)NC(=O)[C@H](Cc1ccc(O)cc1)NC(=O)[C@H](CC(=O)O)NC(=O)[C@H](CO)NC(=O)[C@@H](NC(=O)[C@H](Cc1ccccc1)NC(=O)[C@@H](NC(=O)CNC(=O)[C@H](CCC(=O)O)NC(=O)C(C)(C)NC(=O)[C@@H](N)Cc1ccc(O)cc1)[C@@H](C)O)[C@@H](C)O)C(=O)N[C@@H](Cc1ccc(O)cc1)C(=O)N[C@@H](CC(C)C)C(=O)N[C@@H](CCC(=O)O)C(=O)N[C@@H](CCCCN)C(=O)N[C@@H](CCC(=O)O)C(=O)N[C@@H](C)C(=O)NC(C)(C)C(=O)N[C@@H](CCCCN)C(=O)N[C@@H](CCC(=O)O)C(=O)N[C@@H](Cc1ccccc1)C(=O)N[C@H](C(=O)N[C@@H](CC(N)=O)C(=O)N[C@@H](Cc1c[nH]c2ccccc12)C(=O)N[C@@H](CC(C)C)C(=O)N[C@@H](CC(C)C)C(=O)N[C@@H](C)C(=O)NCC(=O)NCC(=O)N1CCC[C@H]1C(=O)N[C@@H](CO)C(=O)N[C@@H](CO)C(=O)NCC(=O)N[C@@H](C)C(=O)N1CCC[C@H]1C(=O)N1CCC[C@H]1C(=O)N1CCC[C@H]1C(=O)N[C@@H](CO)C(=O)N[C@@H](CCCCN)C(N)=O)C(C)C)", "note": "[Compound No. 17]", "values": [{"measurement": "Activity for human GLP-1R (EC50 nM), cAMP HTRF", "setting": "[1]", "result": 0.01, "unit": "nM"}, {"measurement": "Activity for human GIPR (EC50 nM), cAMP HTRF", "setting": "[2]", "result": 0.057, "unit": "nM"}]}
{"binder": "Y[Aib]EGTFTSDYSIYLD[Aib]IAAQEFVQWLLAGGPSSGAPPPSK-NH2 (N-terminus assumed; SMILES CC[C@H](C)[C@H](NC(=O)[C@H](CO)NC(=O)[C@H](Cc1ccc(O)cc1)NC(=O)[C@H](CC(=O)O)NC(=O)[C@H](CO)NC(=O)[C@@H](NC(=O)[C@H](Cc1ccccc1)NC(=O)[C@@H](NC(=O)CNC(=O)[C@H](CCC(=O)O)NC(=O)C(C)(C)NC(=O)[C@@H](N)Cc1ccc(O)cc1)[C@@H](C)O)[C@@H](C)O)C(=O)N[C@@H](Cc1ccc(O)cc1)C(=O)N[C@@H](CC(C)C)C(=O)N[C@@H](CC(=O)O)C(=O)NC(C)(C)C(=O)N[C@H](C(=O)N[C@@H](C)C(=O)N[C@@H](C)C(=O)N[C@@H](CCC(N)=O)C(=O)N[C@@H](CCC(=O)O)C(=O)N[C@@H](Cc1ccccc1)C(=O)N[C@H](C(=O)N[C@@H](CCC(N)=O)C(=O)N[C@@H](Cc1c[nH]c2ccccc12)C(=O)N[C@@H](CC(C)C)C(=O)N[C@@H](CC(C)C)C(=O)N[C@@H](C)C(=O)NCC(=O)NCC(=O)N1CCC[C@H]1C(=O)N[C@@H](CO)C(=O)N[C@@H](CO)C(=O)NCC(=O)N[C@@H](C)C(=O)N1CCC[C@H]1C(=O)N1CCC[C@H]1C(=O)N1CCC[C@H]1C(=O)N[C@@H](CO)C(=O)N[C@@H](CCCCN)C(N)=O)C(C)C)[C@@H](C)CC)", "note": "[Compound No. 22]", "values": [{"measurement": "Activity for human GLP-1R (EC50 nM), cAMP HTRF", "setting": "[1]", "result": 0.051, "unit": "nM"}, {"measurement": "Activity for human GIPR (EC50 nM), cAMP HTRF", "setting": "[2]", "result": 0.018, "unit": "nM"}]}
{"binder": "Y[Aib]EGTFTSDYSIYLE[Aib]IAAQEFVNWLLAGGPSSGAPPPSK-NH2 (N-terminus assumed; SMILES CC[C@H](C)[C@H](NC(=O)[C@H](CO)NC(=O)[C@H](Cc1ccc(O)cc1)NC(=O)[C@H](CC(=O)O)NC(=O)[C@H](CO)NC(=O)[C@@H](NC(=O)[C@H](Cc1ccccc1)NC(=O)[C@@H](NC(=O)CNC(=O)[C@H](CCC(=O)O)NC(=O)C(C)(C)NC(=O)[C@@H](N)Cc1ccc(O)cc1)[C@@H](C)O)[C@@H](C)O)C(=O)N[C@@H](Cc1ccc(O)cc1)C(=O)N[C@@H](CC(C)C)C(=O)N[C@@H](CCC(=O)O)C(=O)NC(C)(C)C(=O)N[C@H](C(=O)N[C@@H](C)C(=O)N[C@@H](C)C(=O)N[C@@H](CCC(N)=O)C(=O)N[C@@H](CCC(=O)O)C(=O)N[C@@H](Cc1ccccc1)C(=O)N[C@H](C(=O)N[C@@H](CC(N)=O)C(=O)N[C@@H](Cc1c[nH]c2ccccc12)C(=O)N[C@@H](CC(C)C)C(=O)N[C@@H](CC(C)C)C(=O)N[C@@H](C)C(=O)NCC(=O)NCC(=O)N1CCC[C@H]1C(=O)N[C@@H](CO)C(=O)N[C@@H](CO)C(=O)NCC(=O)N[C@@H](C)C(=O)N1CCC[C@H]1C(=O)N1CCC[C@H]1C(=O)N1CCC[C@H]1C(=O)N[C@@H](CO)C(=O)N[C@@H](CCCCN)C(N)=O)C(C)C)[C@@H](C)CC)", "note": "[Compound No. 18]", "values": [{"measurement": "Activity for human GLP-1R (EC50 nM), cAMP HTRF", "setting": "[1]", "result": 0.022, "unit": "nM"}, {"measurement": "Activity for human GIPR (EC50 nM), cAMP HTRF", "setting": "[2]", "result": 0.012, "unit": "nM"}]}
{"binder": "Y[Aib]EGTFTSDYSIYLDKIAAQEFVNWLLAGGPSSGAPPPSK-NH2 (N-terminus assumed; SMILES CC[C@H](C)[C@H](NC(=O)[C@H](CCCCN)NC(=O)[C@H](CC(=O)O)NC(=O)[C@H](CC(C)C)NC(=O)[C@H](Cc1ccc(O)cc1)NC(=O)[C@@H](NC(=O)[C@H](CO)NC(=O)[C@H](Cc1ccc(O)cc1)NC(=O)[C@H](CC(=O)O)NC(=O)[C@H](CO)NC(=O)[C@@H](NC(=O)[C@H](Cc1ccccc1)NC(=O)[C@@H](NC(=O)CNC(=O)[C@H](CCC(=O)O)NC(=O)C(C)(C)NC(=O)[C@@H](N)Cc1ccc(O)cc1)[C@@H](C)O)[C@@H](C)O)[C@@H](C)CC)C(=O)N[C@@H](C)C(=O)N[C@@H](C)C(=O)N[C@@H](CCC(N)=O)C(=O)N[C@@H](CCC(=O)O)C(=O)N[C@@H](Cc1ccccc1)C(=O)N[C@H](C(=O)N[C@@H](CC(N)=O)C(=O)N[C@@H](Cc1c[nH]c2ccccc12)C(=O)N[C@@H](CC(C)C)C(=O)N[C@@H](CC(C)C)C(=O)N[C@@H](C)C(=O)NCC(=O)NCC(=O)N1CCC[C@H]1C(=O)N[C@@H](CO)C(=O)N[C@@H](CO)C(=O)NCC(=O)N[C@@H](C)C(=O)N1CCC[C@H]1C(=O)N1CCC[C@H]1C(=O)N1CCC[C@H]1C(=O)N[C@@H](CO)C(=O)N[C@@H](CCCCN)C(N)=O)C(C)C)", "note": "[Compound No. 20]", "values": [{"measurement": "Activity for human GLP-1R (EC50 nM), cAMP HTRF", "setting": "[1]", "result": 0.027, "unit": "nM"}, {"measurement": "Activity for human GIPR (EC50 nM), cAMP HTRF", "setting": "[2]", "result": 0.008, "unit": "nM"}]}
{"binder": "Y[Aib]EGTFTSDYSIYLDKEAAKEFVNWLLAGGPSSGAPPPSK-NH2 (N-terminus assumed; SMILES CC[C@H](C)[C@H](NC(=O)[C@H](CO)NC(=O)[C@H](Cc1ccc(O)cc1)NC(=O)[C@H](CC(=O)O)NC(=O)[C@H](CO)NC(=O)[C@@H](NC(=O)[C@H](Cc1ccccc1)NC(=O)[C@@H](NC(=O)CNC(=O)[C@H](CCC(=O)O)NC(=O)C(C)(C)NC(=O)[C@@H](N)Cc1ccc(O)cc1)[C@@H](C)O)[C@@H](C)O)C(=O)N[C@@H](Cc1ccc(O)cc1)C(=O)N[C@@H](CC(C)C)C(=O)N[C@@H](CC(=O)O)C(=O)N[C@@H](CCCCN)C(=O)N[C@@H](CCC(=O)O)C(=O)N[C@@H](C)C(=O)N[C@@H](C)C(=O)N[C@@H](CCCCN)C(=O)N[C@@H](CCC(=O)O)C(=O)N[C@@H](Cc1ccccc1)C(=O)N[C@H](C(=O)N[C@@H](CC(N)=O)C(=O)N[C@@H](Cc1c[nH]c2ccccc12)C(=O)N[C@@H](CC(C)C)C(=O)N[C@@H](CC(C)C)C(=O)N[C@@H](C)C(=O)NCC(=O)NCC(=O)N1CCC[C@H]1C(=O)N[C@@H](CO)C(=O)N[C@@H](CO)C(=O)NCC(=O)N[C@@H](C)C(=O)N1CCC[C@H]1C(=O)N1CCC[C@H]1C(=O)N1CCC[C@H]1C(=O)N[C@@H](CO)C(=O)N[C@@H](CCCCN)C(N)=O)C(C)C)", "note": "[Compound No. 19]", "values": [{"measurement": "Activity for human GLP-1R (EC50 nM), cAMP HTRF", "setting": "[1]", "result": 0.024, "unit": "nM"}, {"measurement": "Activity for human GIPR (EC50 nM), cAMP HTRF", "setting": "[2]", "result": 0.02, "unit": "nM"}]}
{"binder": "Y[Aib]EGTFTSDYSIYLEKEAAKEFVNWLLAQKPSSGAPPPSK-NH2 (N-terminus assumed; SMILES CC[C@H](C)[C@H](NC(=O)[C@H](CO)NC(=O)[C@H](Cc1ccc(O)cc1)NC(=O)[C@H](CC(=O)O)NC(=O)[C@H](CO)NC(=O)[C@@H](NC(=O)[C@H](Cc1ccccc1)NC(=O)[C@@H](NC(=O)CNC(=O)[C@H](CCC(=O)O)NC(=O)C(C)(C)NC(=O)[C@@H](N)Cc1ccc(O)cc1)[C@@H](C)O)[C@@H](C)O)C(=O)N[C@@H](Cc1ccc(O)cc1)C(=O)N[C@@H](CC(C)C)C(=O)N[C@@H](CCC(=O)O)C(=O)N[C@@H](CCCCN)C(=O)N[C@@H](CCC(=O)O)C(=O)N[C@@H](C)C(=O)N[C@@H](C)C(=O)N[C@@H](CCCCN)C(=O)N[C@@H](CCC(=O)O)C(=O)N[C@@H](Cc1ccccc1)C(=O)N[C@H](C(=O)N[C@@H](CC(N)=O)C(=O)N[C@@H](Cc1c[nH]c2ccccc12)C(=O)N[C@@H](CC(C)C)C(=O)N[C@@H](CC(C)C)C(=O)N[C@@H](C)C(=O)N[C@@H](CCC(N)=O)C(=O)N[C@@H](CCCCN)C(=O)N1CCC[C@H]1C(=O)N[C@@H](CO)C(=O)N[C@@H](CO)C(=O)NCC(=O)N[C@@H](C)C(=O)N1CCC[C@H]1C(=O)N1CCC[C@H]1C(=O)N1CCC[C@H]1C(=O)N[C@@H](CO)C(=O)N[C@@H](CCCCN)C(N)=O)C(C)C)", "note": "[Compound No. 23]", "values": [{"measurement": "Activity for human GLP-1R (EC50 nM), cAMP HTRF", "setting": "[1]", "result": 0.059, "unit": "nM"}, {"measurement": "Activity for human GIPR (EC50 nM), cAMP HTRF", "setting": "[2]", "result": 0.02, "unit": "nM"}]}
